Results published in patent US20160130347A1 (Hoffmann-La Roche, published 2016).
Numbering of substitutions follows the chain as printed.

B1: M4-3(A7)/ML2 IgG (antibody, V domains shown)
VH: QVQLQESGPGLVKPSQTLSLTCTVSGGSITDGYYWNWIRQHPGKGLEWIGYITFDGRNNYNPSLKSRVTISRDTSKNQFSLKLSSVTAADTAVYYCADFDYWGQGTLVTVSS
VL: DIQMTQSPSSLSASVGDRVTITCRASQGIRNYLNWYQQKPGKAPKLLIYYTSSLHSGVPSRFSGSGSGTDFTLTISSLQPEDFATYYCQQYSKLPWTFGQGTKVEIK
notes: Human IgG1 format
B2: M4-3(C1)/ML2(G3) IgG (antibody, V domains shown)
VH: B1 VH with D31S, R57S
VL: DIQMTQSPSSLSASVGDRVTITCRASQGIRNYLNWYQQKPGKAPKLLIYYTSSLHSGVPSRFSGSGSGTDYTLTISSLQPEDFATYYCQQYSALPWTFGQGTKVEIKR
notes: Human IgG1; also called MCSP M4-3(C1)ML2(G3)
B3: M4-3/ML2(G3) IgG (antibody, V domains shown)
VH: B1 VH with D31S, F54Y, R57S
VL: B1 VL with F71Y, K93A
notes: Human IgG1 format
B4: M4-3/ML2 (C5) IgG (antibody, V domains shown)
VH: B1 VH with D31S, F54Y, R57S
VL: B1 VL with Q27R, N31E, S52G, K93E
notes: Human IgG1 format
B5: M4-3(D6)/ML2 IgG (antibody, V domains shown)
VH: B1 VH with D31S, R57K
VL: B1 VL
notes: Human IgG1 format
B6: M4-3(A7)/ML2(G3) IgG (antibody, V domains shown)
VH: B1 VH
VL: B1 VL with F71Y, K93A
notes: Human IgG1 format
B7: M4-3/ML2 (E10) IgG (antibody, V domains shown)
VH: B1 VH with D31S, F54Y, R57S
VL: B1 VL with Q27Y, N31G, Y87H
notes: Human IgG1 format
B8: M4-3(C1)/ML2(E10) IgG (antibody, V domains shown)
VH: B1 VH with D31S, R57S
VL: B1 VL with Q27Y, N31G, Y87H
notes: Human IgG1 format
B9: M4-3(B8)/ML2 IgG (antibody, V domains shown)
VH: B1 VH with D31S
VL: B1 VL
notes: Human IgG1 format
B10: M4-3/ML2 (E10/G3) IgG (antibody, V domains shown)
VH: B1 VH with D31S, F54Y, R57S
VL: B1 VL with Q27Y, N31G, Y87H, K93A
notes: Human IgG1 format; also called MCSP ML2(E10-G3)
B11: M4-3(C1)/ML2(C5) IgG (antibody, V domains shown)
VH: B1 VH with D31S, R57S
VL: B1 VL with Q27R, N31E, S52G, K93E
notes: Human IgG1 format
B12: M4-3(B7)/ML2 IgG (antibody, V domains shown)
VH: B1 VH with D31S, R57I
VL: B1 VL
notes: Human IgG1 format
B13: M4-3(A7)/ML2(E10) IgG (antibody, V domains shown)
VH: B1 VH
VL: B1 VL with Q27Y, N31G, Y87H
notes: Human IgG1 format
B14: M4-3/ML2 (C5/G3) IgG (antibody, V domains shown)
VH: B1 VH with D31S, F54Y, R57S
VL: B1 VL with Q27R, N31E, S52G, K93A
notes: Human IgG1 format; also called MCSP ML2(C5-G3)
B15: M4-3(A7)/ML2(C5) IgG (antibody, V domains shown)
VH: B1 VH
VL: B1 VL with Q27R, N31E, S52G, K93E
notes: Human IgG1 format
B16: M4-3(C1)/ML2 IgG (antibody, V domains shown)
VH: B1 VH with D31S, R57S
VL: B1 VL
notes: Human IgG1 format
B17: hu Fab (MCSP)-Crossfab (CD3) (bispecific antibody)
chain 1: EVQLQESGPGLVKPSQSLSLTCSVTGYSITSGYYWNWIRQFPGNKLEWMGYITYDGSNNYNPSLKNRISITRDTSKNQFFLKLNSVTTEDTATYYCADFDYWGQGTTLTVSSASTKGPSVFPLAPSSKSTSGGTAALGCLVKDYFPEPVTVSWNSGALTSGVHTFPAVLQSSGLYSLSSVVTVPSSSLGTQTYICNVNHKPSNTKVDKKVEPKSCDGGGGSGGGGSDIQMTQSPSSLSASVGDRVTITCRASQDIRNYLNWYQQKPGKAPKLLIYYTSRLESGVPSRFSGSGSGTDYTLTISSLQPEDFATYYCQQGNTLPWTFGQGTKVEIKSSASTKGPSVFPLAPSSKSTSGGTAALGCLVKDYFPEPVTVSWNSGALTSGVHTFPAVLQSSGLYSLSSVVTVPSSSLGTQTYICNVNHKPSNTKVDKKVEPKSC
light: DIVLTQSPSSLSASLGDRVTISCSASQGIRNYLNWYQQRPDGTVKLLIYYTSSLHSGVPSRFSGSGSGTDYSLTISNLEPEDIATYYCQQYSKLPWTFGGGTKLEIKRTVAAPSVFIFPPSDEQLKSGTASVVCLLNNFYPREAKVQWKVDNALQSGNSQESVTEQDSKDSTYSLSSTLTLSKADYEKHKVYACEVTHQGLSSPVTKSFNRGEC
chain 2: EVQLVESGGGLVQPGGSLRLSCAASGYSFTGYTMNWVRQAPGKGLEWVALINPYKGVSTYNQKFKDRFTISVDKSKNTAYLQMNSLRAEDTAVYYCARSGYYGDSDWYFDVWGQGTLVTVSSASVAAPSVFIFPPSDEQLKSGTASVVCLLNNFYPREAKVQWKVDNALQSGNSQESVTEQDSKDSTYSLSSTLTLSKADYEKHKVYACEVTHQGLSSPVTKSFNRGEC
B18: hu Fab (MCSP)=Crossfab (CD3) (bispecific antibody)
chain 1: B17 chain 1
chain 2: EVQLVESGGGLVQPGGSLRLSCAASGYSFTGYTMNWVRQAPGKGLEWVALINPYKGVSTYNQKFKDRFTISVDKSKNTAYLQMNSLRAEDTAVYYCARSGYYGDSDWYFDVWGQGTLVTVSSASVAAPSVFIFPPSDEQLKSGTASVVCLLNNFYPREAKVQWKVDNALQSGNSQESVTEQDSKDSTYSLSSTLTLSKADYEKHKVYACEVTHQGLSSPVTKSFNRGECDGGGGSGGGGSDIVLTQSPSSLSASLGDRVTISCSASQGIRNYLNWYQQRPDGTVKLLIYYTSSLHSGVPSRFSGSGSGTDYSLTISNLEPEDIATYYCQQYSKLPWTFGGGTKLEIKRTVAAPSVFIFPPSDEQLKSGTASVVCLLNNFYPREAKVQWKVDNALQSGNSQESVTEQDSKDSTYSLSSTLTLSKADYEKHKVYACEVTHQGLSSPVTKSFNRGEC

Columns and labels:
[1] = target: T1, human MCSP(D3 domain)-avi-his (human, UniProt Q6UVK1 1587-2221, limits assumed); test: ratio of ProteOn IgG KD against parental M4-3/ML2 IgG
T1 construct: domain: D3 domain; also called hu-MCSP(D3 domain)-avi-his
T1 sequence (looked up): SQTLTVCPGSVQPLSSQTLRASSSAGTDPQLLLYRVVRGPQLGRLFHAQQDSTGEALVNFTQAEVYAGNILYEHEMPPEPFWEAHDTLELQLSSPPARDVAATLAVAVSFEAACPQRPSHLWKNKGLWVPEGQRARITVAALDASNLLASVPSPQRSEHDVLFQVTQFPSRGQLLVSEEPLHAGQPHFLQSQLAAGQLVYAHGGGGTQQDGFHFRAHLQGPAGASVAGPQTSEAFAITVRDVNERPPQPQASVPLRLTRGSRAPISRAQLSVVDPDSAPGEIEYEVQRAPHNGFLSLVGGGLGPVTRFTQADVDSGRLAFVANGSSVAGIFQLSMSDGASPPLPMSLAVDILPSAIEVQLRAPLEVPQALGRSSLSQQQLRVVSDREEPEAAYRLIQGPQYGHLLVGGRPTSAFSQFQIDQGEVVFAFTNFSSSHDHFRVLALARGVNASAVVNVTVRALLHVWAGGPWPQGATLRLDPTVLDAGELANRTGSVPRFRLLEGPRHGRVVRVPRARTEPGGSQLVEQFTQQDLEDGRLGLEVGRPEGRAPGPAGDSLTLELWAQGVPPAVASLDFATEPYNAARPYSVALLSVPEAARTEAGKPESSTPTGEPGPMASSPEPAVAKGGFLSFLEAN
Procedure: (§1) Briefly, carboxymethylated dextran biosensor chips (CM5, GE Healthcare) were activated with N-ethyl-N′-(3-dimethylaminopropyl)-carbodiimide hydrochloride (EDC) and N-hydroxysuccinimide (NHS) according to the supplier's instructions. Anti-human F(ab′)2 fragment specific capture antibody was diluted with 10 mM sodium acetate, pH 5.0 at 50 μg/ml before injection at a flow rate of 10 μl/minute to achieve approximately up to 10.000 response units (RU) of coupled capture antibody. Following the injection of the capture antibody, 1 M ethanolamine is injected to block unreacted groups. For kinetics measurements, Fabs from bacterial supernatant or purified Fabs were injected at a flow rate of 10 ul/minute for 300 s and a dissociation of 300 s for capture baseline stabilization. Capture levels were in the range of 100-500 RU. […] The surface of the sensorchip was regenerated by injection of glycine pH 1.5 for 30 s at 90 ul/min followed by injection of NaOH for 20 s at the same flow rate. Association rates (kon) and dissociation rates (koff) were calculated using a simple one-to-one Langmuir binding model (ProteOn XPR36 Evaluation Software or Scrubber software (BioLogic)) by simultaneously fitting the association and dissociation sensorgrams. The equilibrium dissociation constant (KD) was calculated as the ratio koff/kon.
(§2) Method exactly as described for the Fab fragments, just purified IgG from mammalian production were used.

cynomolgus MCSP D3 = target: T2, cynomolgus MCSP D3 (cynomolgus); test: as above
T2 construct: domain: D3; also called Cyno MCSP; cynomolgus homologue
Procedure: as §1, §2

[2] = target: human MCSP on tumor cells (human, UniProt Q6UVK1 30-2322); test: cell-based or functional assay
human CD3 on T cells = human CD3 on T cells (human, UniProt P07766 23-126); test: cell-based or functional assay
human CD3 on T cells, sequence (P07766 23-126 limits assumed): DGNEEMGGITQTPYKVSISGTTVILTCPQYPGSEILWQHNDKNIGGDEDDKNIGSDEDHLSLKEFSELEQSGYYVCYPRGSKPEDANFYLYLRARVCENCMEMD

human MCSP on tumor cells, sequence (Q6UVK1 30-2322): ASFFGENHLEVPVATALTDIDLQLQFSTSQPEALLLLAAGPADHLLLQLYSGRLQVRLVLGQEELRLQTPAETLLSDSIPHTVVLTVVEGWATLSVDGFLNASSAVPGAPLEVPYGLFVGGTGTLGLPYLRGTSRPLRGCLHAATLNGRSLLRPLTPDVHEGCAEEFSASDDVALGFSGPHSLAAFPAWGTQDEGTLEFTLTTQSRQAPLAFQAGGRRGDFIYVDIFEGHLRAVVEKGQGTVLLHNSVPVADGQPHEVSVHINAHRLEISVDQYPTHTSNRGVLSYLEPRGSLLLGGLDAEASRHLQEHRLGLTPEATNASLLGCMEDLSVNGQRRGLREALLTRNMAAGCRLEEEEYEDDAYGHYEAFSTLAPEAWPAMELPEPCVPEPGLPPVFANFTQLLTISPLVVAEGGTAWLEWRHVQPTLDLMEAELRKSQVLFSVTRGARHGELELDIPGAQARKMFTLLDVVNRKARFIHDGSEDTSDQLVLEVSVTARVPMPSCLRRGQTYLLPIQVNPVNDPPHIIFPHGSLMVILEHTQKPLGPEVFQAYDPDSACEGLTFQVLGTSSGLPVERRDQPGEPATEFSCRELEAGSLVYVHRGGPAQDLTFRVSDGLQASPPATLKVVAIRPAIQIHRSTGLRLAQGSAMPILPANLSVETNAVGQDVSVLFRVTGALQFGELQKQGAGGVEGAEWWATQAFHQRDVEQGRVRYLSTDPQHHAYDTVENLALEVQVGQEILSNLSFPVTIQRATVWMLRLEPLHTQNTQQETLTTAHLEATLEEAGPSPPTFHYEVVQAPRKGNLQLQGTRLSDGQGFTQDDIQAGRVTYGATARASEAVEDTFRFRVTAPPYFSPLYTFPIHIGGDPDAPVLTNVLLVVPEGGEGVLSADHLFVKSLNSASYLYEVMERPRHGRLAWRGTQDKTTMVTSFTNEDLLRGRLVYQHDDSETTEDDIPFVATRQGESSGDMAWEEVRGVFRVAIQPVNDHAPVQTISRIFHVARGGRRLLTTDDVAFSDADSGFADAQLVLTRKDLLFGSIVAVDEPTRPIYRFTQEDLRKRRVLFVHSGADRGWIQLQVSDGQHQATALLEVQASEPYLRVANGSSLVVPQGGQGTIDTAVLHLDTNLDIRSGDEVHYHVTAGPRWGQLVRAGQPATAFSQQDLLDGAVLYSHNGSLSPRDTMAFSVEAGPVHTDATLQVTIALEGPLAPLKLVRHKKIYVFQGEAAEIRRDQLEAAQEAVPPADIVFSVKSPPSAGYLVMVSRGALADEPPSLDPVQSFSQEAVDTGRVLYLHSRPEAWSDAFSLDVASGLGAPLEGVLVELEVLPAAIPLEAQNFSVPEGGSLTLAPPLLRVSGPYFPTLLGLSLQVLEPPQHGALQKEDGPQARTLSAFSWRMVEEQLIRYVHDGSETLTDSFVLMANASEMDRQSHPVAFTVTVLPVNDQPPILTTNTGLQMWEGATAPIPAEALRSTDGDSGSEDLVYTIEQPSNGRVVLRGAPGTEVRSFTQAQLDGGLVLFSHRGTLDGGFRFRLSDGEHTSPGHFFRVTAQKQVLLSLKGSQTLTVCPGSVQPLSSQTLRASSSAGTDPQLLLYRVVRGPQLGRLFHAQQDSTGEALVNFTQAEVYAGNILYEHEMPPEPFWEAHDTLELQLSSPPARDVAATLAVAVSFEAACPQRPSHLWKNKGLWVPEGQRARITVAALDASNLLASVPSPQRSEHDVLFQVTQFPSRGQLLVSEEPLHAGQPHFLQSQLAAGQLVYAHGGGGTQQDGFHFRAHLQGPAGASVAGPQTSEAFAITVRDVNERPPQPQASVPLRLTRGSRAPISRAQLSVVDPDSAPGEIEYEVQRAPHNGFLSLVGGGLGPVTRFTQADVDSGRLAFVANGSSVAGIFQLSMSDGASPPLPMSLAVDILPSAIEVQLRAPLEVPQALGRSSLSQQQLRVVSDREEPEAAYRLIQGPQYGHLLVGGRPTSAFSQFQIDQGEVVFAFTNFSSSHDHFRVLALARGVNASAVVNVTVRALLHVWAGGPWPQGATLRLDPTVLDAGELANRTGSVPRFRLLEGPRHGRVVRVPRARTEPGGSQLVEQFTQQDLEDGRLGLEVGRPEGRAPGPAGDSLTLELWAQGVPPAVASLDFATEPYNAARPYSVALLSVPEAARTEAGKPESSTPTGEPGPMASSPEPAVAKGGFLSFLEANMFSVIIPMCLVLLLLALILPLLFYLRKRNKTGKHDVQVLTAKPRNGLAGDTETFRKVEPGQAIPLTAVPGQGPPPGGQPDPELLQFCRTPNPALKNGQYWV

Binder | fold increase over parent (IgG KD, comparative binding affinity) [1] | fold increase over parent (IgG KD, comparative binding affinity) (cynomolgus MCSP D3) | EC50 of killing (LDH release) of MV-3 cells, human PBMCs, E:T 10:1, ~24 h [2] | EC50 of killing (LDH release) of MV-3 cells, human PBMCs, E:T 10:1, ~24 h (human CD3 on T cells)
B1 | 2.5 fold | 2 fold |  | 
B2 | 28.6 fold | 10 fold |  | 
B3 | 6.7 fold | 3.3 fold |  | 
B4 | 5 fold | 2 fold |  | 
B5 | 5 fold | 2 fold |  | 
B6 | 28.6 fold | 10 fold |  | 
B7 | 2 fold | 1 fold |  | 
B8 | 4 fold | 3.3 fold |  | 
B9 | 2.2 fold | 2 fold |  | 
B10 | 5 fold | 2.2 fold |  | 
B11 | 10 fold | 6.7 fold |  | 
B12 | 4 fold | 2.9 fold |  | 
B13 | 6.7 fold | 2.9 fold |  | 
B14 | 2.9 fold | 2 fold |  | 
B15 | 28.6 fold | 10 fold |  | 
B16 | 2.2 fold | 2.5 fold |  | 
B17 |  |  | 0.0254 nM | 0.0254 nM
B18 |  |  | 0.0898 nM | 0.0898 nM
